The target in data set [1] is T1, Hera_core (UniProt Q72GF3 1-365).
T1 sequence: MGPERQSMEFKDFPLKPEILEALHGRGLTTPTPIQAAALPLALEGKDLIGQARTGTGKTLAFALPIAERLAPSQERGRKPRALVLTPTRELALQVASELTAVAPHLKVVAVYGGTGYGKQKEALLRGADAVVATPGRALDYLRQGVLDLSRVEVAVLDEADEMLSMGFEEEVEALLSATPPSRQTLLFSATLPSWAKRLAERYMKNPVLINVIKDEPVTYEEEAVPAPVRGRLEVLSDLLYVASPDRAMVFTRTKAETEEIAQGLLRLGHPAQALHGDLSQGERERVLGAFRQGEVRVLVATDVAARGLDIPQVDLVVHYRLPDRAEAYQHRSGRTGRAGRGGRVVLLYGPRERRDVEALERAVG
In words: fluorescence intensity titration.

For data set [2], the target named is T2, Hera RecA_N (UniProt Q72GF3 1-207).
T2 sequence: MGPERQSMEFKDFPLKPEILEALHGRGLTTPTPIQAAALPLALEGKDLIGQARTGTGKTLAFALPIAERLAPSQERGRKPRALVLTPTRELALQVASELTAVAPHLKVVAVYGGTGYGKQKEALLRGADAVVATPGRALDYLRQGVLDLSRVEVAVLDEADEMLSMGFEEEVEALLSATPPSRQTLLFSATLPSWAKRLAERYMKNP
The data set is described as follows: fluorescence intensity titration.

For data set [3], the target named is T3, Hera RecA_C (UniProt Q72GF3 208-369).
T3 sequence: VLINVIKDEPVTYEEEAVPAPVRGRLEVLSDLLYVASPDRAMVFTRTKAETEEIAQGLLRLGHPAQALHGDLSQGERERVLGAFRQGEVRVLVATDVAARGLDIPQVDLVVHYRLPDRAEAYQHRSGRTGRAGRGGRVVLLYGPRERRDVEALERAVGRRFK
The data set is described as follows: fluorescence intensity titration.

Data set [4] concerns the target T4, YxiN_core (UniProt P42305 1-368).
T4 sequence: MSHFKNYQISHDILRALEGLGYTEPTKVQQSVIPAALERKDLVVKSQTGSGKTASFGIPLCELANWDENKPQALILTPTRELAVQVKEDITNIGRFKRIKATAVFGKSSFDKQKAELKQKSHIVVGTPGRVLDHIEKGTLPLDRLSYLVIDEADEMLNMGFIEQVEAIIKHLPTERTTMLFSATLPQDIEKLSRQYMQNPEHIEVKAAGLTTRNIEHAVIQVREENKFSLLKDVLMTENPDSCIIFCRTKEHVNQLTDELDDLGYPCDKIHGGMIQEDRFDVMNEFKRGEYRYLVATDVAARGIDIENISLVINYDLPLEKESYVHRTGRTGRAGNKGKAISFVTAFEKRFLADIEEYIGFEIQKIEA
The data set is described as follows: fluorescence intensity titration.

The target of data set [5] is T5, YxiN RecA_N (UniProt P42305 1-206).
T5 sequence: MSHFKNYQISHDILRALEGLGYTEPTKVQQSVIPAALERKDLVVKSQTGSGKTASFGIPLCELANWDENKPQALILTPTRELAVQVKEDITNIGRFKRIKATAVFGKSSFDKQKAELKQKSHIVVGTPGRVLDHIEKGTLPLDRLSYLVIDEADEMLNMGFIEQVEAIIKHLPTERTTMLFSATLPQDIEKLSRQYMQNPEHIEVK
In words: fluorescence anisotropy. In general terms: Fluorescence polarisation rises when a labelled molecule tumbles more slowly, as on binding a larger partner.

The target of data set [6] is T6, YxiN RecA_C (UniProt P42305 211-370).
T6 sequence: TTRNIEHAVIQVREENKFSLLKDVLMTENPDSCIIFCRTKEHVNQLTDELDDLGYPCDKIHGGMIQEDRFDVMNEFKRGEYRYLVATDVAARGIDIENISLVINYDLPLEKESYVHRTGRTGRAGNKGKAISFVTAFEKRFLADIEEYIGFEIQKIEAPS
In words: fluorescence anisotropy.

Data set [7] deals with T1, Hera_core. In words: fluorescence intensity titration. The source holds these as a separate data set.

Read-outs that look alike come from different tables or passages of the source.

B1: 14mer dsRNA (dsRNA)
RNA 1: GGGCGGGCCCGCCC
RNA 2: GGGCGGGCCCGCCC
The Kd is the free concentration of one partner at which half of the binding sites on the other are occupied at equilibrium, for simple one-to-one binding. As for B1, the dissociation constant (Kd) in data set [1] amounted to 7 ± 3 nM; in data set [2], 889 ± 236 nM; in data set [3], 327 ± 161 nM; in data set [4] it was 2 nM; in data set [7] it was 15.1 nM. For the same molecule, the binding result in data set [5] and in data set [6] was “no binding” throughout.

The values above are taken from paper PMC4176333.
